Results reported in patent US20240067729A1 (PALLEON PHARMACEUTICALS, published 2024).

B1: 752-hIgG1 (chimeric PAL752) (antibody, V domains shown)
VH: EVQLQESGAELARPGASVKLSCKASGHAFTSDSINWVKQRIGQGLEWIGEIYPRSGNPYYNEKFKGKATLTADKSSSTAYMELRSLTSEDSAVYFCATDYYGRYFDVWGTGTTVTVSS
VL: DIQMTQSSFSFSVSLGDRVTIICKASEDIYNRLAWYQQKPGNTPRLLISGATSLETGVPSRFSGSGSGKDYTLSITSLQTEDVATYYCQQYWSTPWTFGGGTKLEIK
B2: 767-hIgG1 (chimeric PAL767) (antibody, V domains shown)
VH: EVQLQESGPSLVKPSQTLSLTCSVTGDSITSGYWNWIRKFPGNKLEYMGYISYTGSTYYNPSLKRRISITRDTSKNQYYLQLNSVTTEDTATYYCASQGGWLQAMDYWGQGTSVTVSS
VL: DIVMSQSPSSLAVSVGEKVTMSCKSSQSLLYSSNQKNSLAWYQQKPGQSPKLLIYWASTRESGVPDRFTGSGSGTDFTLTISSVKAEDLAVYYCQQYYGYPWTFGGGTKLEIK
B3: 769-hIgG1 (chimeric PAL769) (antibody, V domains shown)
VH: EVQLQESGAELVKPGASVTLSCTASGFNIKDTYMHWVKQRPEQGLEWIGRIDPANDNTKYDPKFQDKATITADTSSDTAYLRLSSLTSEDTAVYYCAREGYGGSYGEGYWGQGTTLTVSS
VL: SIVMTQTPKFLLVSAGDRVTITCKASQSVSNDVIWYQQKPGQSPKLLIYYASIRFTGVPDRFAGSGYGTDFTFTINTVQAEDLAVYFCQQDYNSPWTFGGGTKLEIK
B4: 771-hIgG1 (chimeric PAL771) (antibody, V domains shown)
VH: EVQLQESGAELVKPGASVKLSCTASGFNIKDTYMHWVKQRPEQGLEWIGRIDPANGNTKYDPKFPGKATITADTSSNTAYLQLSSLTSEDAAVYYCARPFNYRFYDVYYFDYWGQGTTLTVST
VL: QIVLTQSPAIMSASPGEKVTMTCSASSSVSYMYWYQQKPGSSPRLLIYDTSNLASGVPLRFSGSGSGTSYSLTLSRMEAEDAATYYCQQWSTYPLTFGAGTKLELK
B5: 785-hIgG1 (chimeric PAL785) (antibody, V domains shown)
VH: EVQLQESGPELVKPGTSVKMSCKASGYTFTSYVMHWVKQRPGQGLEWIGYINPYNDGSKYNEKFKGKATLTSDTSSSTAYMELSSLTSEDSAVYYCAKQTLDFWGQGTSVTVST
VL: DIVLTQSPASLAVSLGQRATISCRASESVEFYGTTLMQWYQQKPGQPPKLLIYAASNVESGVPARFSGSGSGTDFSLNIHPVEEGDIGMYFCQQSRKVPYTFGGGTKLEIK
B6: 788-hIgG1 (chimeric PAL788) (antibody, V domains shown)
VH: QVQLQQPGAELVKPGASVKLSCKASGYTFTSNWMNWVKQRPGRGLEWIGRIHPSDSETHYHQKFKSKATLTVDKSSSTAYIQLSSLTSEDSAVYYCAHSSGDYGRDYWGQGTTLTVSS
VL: NIVLTQSPASLAVSLGQRATISCRASESVDSYGNSFMHWYQQKPGQPPKLLIYLASNLQSGVPARFSGSGSRTDFTLTIDPVEADDAATYYCQQNNEDPWTFGGGTKLEIK
B7: h769-N93T (h769.T), humanized 769-hIgG1 variant (antibody, V domains shown)
VH: EVQLVQSGAEVKKPGATVKISCKVSGFNIKDTYMHWVQQAPGKGLEWMGLIDPANDNTIYAEKFQGRVTITADTSTDTAYMELSSLRSEDTAVYYCAREGYGGSYGEGYWGQGTLVTVSS
VL: EIVMTQSPPTLSLSPGERVTLSCRASQSVSNDLSWYQQKPGQAPRLLIYYASIRFTGIPARFSGSGSGTDFTLTISSLQPEDFAVYYCQQDYTSPWTFGQGTKVEIK
notes: Human IgG1
B8: Avelumab (antibody, human IgG1, lambda, V domains shown)
VH: EVQLLESGGGLVQPGGSLRLSCAASGFTFSSYIMMWVRQAPGKGLEWVSSIYPSGGITFYADTVKGRFTISRDNSKNTLYLQMNSLRAEDTAVYYCARIKLGTVTTVDYWGQGTLVTVSS
VL: QSALTQPASVSGSPGQSITISCTGTSSDVGGYNYVSWYQQHPGKAPKLMIYDVSNRPSGVSNRFSGSKSGNTASLTISGLQAEDEADYYCSSYTSSSTRVFGTGTKVTVLG

Assays:
[1] = biological target: T1, human PD-L1 expressed on cells (HCC827, NCI-H292, CHO-PD-L1, engineered CHO-K1) (human, UniProt Q9NZQ7 19-290); test: flow cytometry on NCI-H292 cells, apparent Kd
T1 construct: whole, on cells; Endogenous on the human lung lines HCC827 and NCI-H292; transfected on CHO cells; also called PD-L1 on HCC827; PD-L1 on NCI-H292
T1 sequence (Q9NZQ7 19-290, change not shown): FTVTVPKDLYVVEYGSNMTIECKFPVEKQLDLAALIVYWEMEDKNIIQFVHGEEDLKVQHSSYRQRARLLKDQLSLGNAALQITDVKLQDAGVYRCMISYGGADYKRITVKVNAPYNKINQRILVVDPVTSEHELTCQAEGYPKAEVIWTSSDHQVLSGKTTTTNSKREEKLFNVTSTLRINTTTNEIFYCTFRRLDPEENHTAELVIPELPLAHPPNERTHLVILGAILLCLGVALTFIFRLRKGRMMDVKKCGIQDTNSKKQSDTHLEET
Procedure: (§1) FIG. 14 is a graph showing binding of chimeric PD-L1 antibodies to HCC827 (FIG. 14A) and NCI-H292 (FIG. 14B) lung epithelial cell lines. Binding was measured using a FACS analysis with a […] secondary antibody. MFI=mean fluorescence intensity.
(§2) Purified chimeric antibodies were evaluated for their ability to bind PD-L1 expressed on two human cancer cell lines. HCC827 and NCI-292 cells were incubated with titrated antibodies for 30 min at 4° C. Cells were washed and incubated with AF647-labeled goat anti-human IgG(H+L) for 30 min at 4° C. Cells were washed, fixed and analyzed on FACSCelesta.

[2] = biological target: T2, human PD-L1, his tagged (hPD-L1-his) (human, UniProt Q9NZQ7 19-238, limits assumed); test: BLI (ForteBio Octet), IgG on AHC sensor, hPD-L1-his analyte, 1:1 fit
T2 construct: also called huPD-L1-His; recombinant human PD-L1; not shown: his tag
T2 sequence (Q9NZQ7 19-238 limits assumed): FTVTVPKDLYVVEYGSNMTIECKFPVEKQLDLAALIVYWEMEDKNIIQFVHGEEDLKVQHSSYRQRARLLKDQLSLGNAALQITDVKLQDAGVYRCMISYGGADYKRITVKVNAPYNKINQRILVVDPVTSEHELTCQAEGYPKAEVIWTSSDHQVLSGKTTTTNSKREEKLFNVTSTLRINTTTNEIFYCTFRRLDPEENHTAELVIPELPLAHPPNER
Procedure: (§3) Characterization of chimeric anti-PD-L1 antibodies. ForteBio octet binding of purified chimeric antibodies and recombinant hPD-L1-his and cPD-L1-his was measured. Chimeric human antibodies were captured on AHC (Anti-human IgG-Capture) Biosensor, hPD-L1-his or cPD-L1-his analytes were titrated from 100 nM in a 2× series dilution. The buffer reference was subtracted from the signal and aligned to the baseline. KD, Kon and Koff values were generated using 1:1 fitting model as described above.

[3] = biological target: T3, human PD-L1 Fc fusion (hPD-L1-Fc) (human, UniProt Q9NZQ7 19-238, limits assumed); test: blocking ELISA: antibody titrated + biotin-hPD-1-Fc on coated hPD-L1-Fc
T3 construct: not shown: Fc part
T3 sequence (Q9NZQ7 19-238 limits assumed): as above
Excerpt: The plate was developed with TMB and Stop buffer, the absorbance at 450 nm was read using SpectraMax plate reader. The A450 absorbance was normalized to the control that without antibody for the percentage values. The curve and IC₅₀ were generated using GraphPad Prism software.
Protein A purified chimeric antibodies were examined by size exclusion chromatography and quantified with a UV-Vis spectrophotometer (NanoDrop; mAU=milli absorbance units).

[4] = biological target: T1, human PD-L1 expressed on cells (HCC827, …); test: flow cytometry on HCC827 cells, apparent Kd
Procedure: as §1, §2

[5] = biological target: T4, cynomolgus PD-L1, his tagged (cPD-L1-his) (cynomolgus (Macaca fascicularis), UniProt G7PSE7 19-238); test: BLI (ForteBio Octet), IgG on AHC sensor, cPD-L1-his analyte, 1:1 fit
T4 construct: also called cyPD-L1-His; Cyno PD-L1
T4 sequence (G7PSE7 entry or part of it limits assumed, form in doubt): as the sequence (Q9NZQ7 19-238 limits assumed) above, with A33T, A34S, S62N, R68Q, Q82R, F173L, T185A, T192I, H215L counted along it
Procedure: as §3

[6] = biological target: T1, human PD-L1 expressed on cells (HCC827, …); test: cell-based or functional assay
[7] = biological target: T1, human PD-L1 expressed on cells (HCC827, …); test: flow cytometry MFI, CHO-PD-L1 cells (10 nM) against parental CHO cells (100 nM)
Procedure: CHO cells were incubated with 100 nM antibodies and CHO-PD-L1 cells (from Bioassay) with 10 nM antibodies for 30 min at 4° C. Cells were washed and incubated with goat anti-human IgG(H+L) for 30 in at 4° C. The washed cells were fixed and run on FACSCelesta.

[8] = biological target: T2, human PD-L1, his tagged (hPD-L1-his); test: BLI (ForteBio Octet), hPD-L1-his
Procedure: as §3, with “above. […]” for “above.”

[9] = biological target: T4, cynomolgus PD-L1, his tagged …; test: BLI (ForteBio Octet), cPD-L1-his
Procedure: as §3, with “above. […]” for “above.”

[10] = biological target: T2, human PD-L1, his tagged (hPD-L1-his); test: BLI (ForteBio Octet), hPD-L1-his; remark: listed apart in the source
Procedure: as §3
Selected h769 antibodies were tested in the blocking ELISA as described in Example 3 herein. […] Selected h769 humanized PD-L1 antibodies were characterized following removal of the deamidation motif in CDR-L3. FIG. 25 depicts the ForteBio octet binding of purified humanized antibodies and recombinant hPD-L1-his was measured.

[11] = biological target: T2, human PD-L1, his tagged (hPD-L1-his); test: BLI (ForteBio Octet), recombinant human PD-L1
[12] = biological target: T4, cynomolgus PD-L1, his tagged …; test: BLI (ForteBio Octet), cPD-L1-his analyte, 1:1 fit
Procedure: as §3

Binder | Kd [1] | Kd [2] | IC50 [3] | Kd [4] | Kd [5] | IC50, nM (Function) [6] | Bind PD-L1-CHO/CHO [7] | also measured
B1 | 4.98 nM | 1.18 nM | 4.6 nM | 3.63 nM | 3.18 nM | 1.5 nM |  | 
B2 | 0.23 nM | 0.0522 nM | 2 nM | 0.26 nM | 0.266 nM | 0.6 nM | > 100 x | 
B3 | 0.12 nM | 0.64 nM | 1.6 nM | 0.17 nM | 0.55 nM | 0.5 nM | > 100 x | Kd [8]: 2.59 nM; koff [8]: 0.000967 s⁻¹; kon [8]: 373000 M⁻¹ s⁻¹; Kd [9]: 2.92 nM; koff [9]: 0.000685 s⁻¹; kon [9]: 238000 M⁻¹ s⁻¹
B4 | 1.17 nM | 1.43 nM |  | 1.02 nM | 1.12 nM | 1 nM |  | 
B5 | 0.19 nM | 1.64 nM | 1.9 nM | 0.29 nM | 0.724 nM | 0.5 nM | > 100 x | 
B6 | 1.68 nM | 0.043 nM | 2.9 nM | 1.57 nM | 0.867 nM | 0.9 nM | > 100 x | 
B7 |  |  |  |  |  |  |  | Kd [10]: 1.82 nM; koff [10]: 0.000597 s⁻¹; kon [10]: 328000 M⁻¹ s⁻¹; Kd [11]: 1.76 nM; koff [11]: 0.000629 s⁻¹; kon [11]: 357000 M⁻¹ s⁻¹
B8 |  |  |  |  | 0.994 nM |  |  | Kd [12]: 1.7 nM
